Laboratory results reported in patent US20210030857A1 (NGM BIOPHARMACEUTICALS, published 2021).
Where “and” joins values, the source holds several entries; their conditions need not be identical. Equal values may be shown once. Read-outs that look alike come from different tables or passages of the source. Blank lines part the entries; values can stand above or below the binder they belong to.

Legend:
[1] = molecular target: human beta klotho / human FGFR1c receptor complex on cells (human, UniProt Q86Z14 1-1044; P11362 22-822); assay: cell-based or functional assay
[2] = molecular target: T1, human beta klotho protein (soluble, used in Biacore) (human, UniProt Q86Z14 53-997, limits assumed); assay: Biacore SPR (as in Example 2)
T1 construct: also called HuKLB; huKLB
T1 sequence: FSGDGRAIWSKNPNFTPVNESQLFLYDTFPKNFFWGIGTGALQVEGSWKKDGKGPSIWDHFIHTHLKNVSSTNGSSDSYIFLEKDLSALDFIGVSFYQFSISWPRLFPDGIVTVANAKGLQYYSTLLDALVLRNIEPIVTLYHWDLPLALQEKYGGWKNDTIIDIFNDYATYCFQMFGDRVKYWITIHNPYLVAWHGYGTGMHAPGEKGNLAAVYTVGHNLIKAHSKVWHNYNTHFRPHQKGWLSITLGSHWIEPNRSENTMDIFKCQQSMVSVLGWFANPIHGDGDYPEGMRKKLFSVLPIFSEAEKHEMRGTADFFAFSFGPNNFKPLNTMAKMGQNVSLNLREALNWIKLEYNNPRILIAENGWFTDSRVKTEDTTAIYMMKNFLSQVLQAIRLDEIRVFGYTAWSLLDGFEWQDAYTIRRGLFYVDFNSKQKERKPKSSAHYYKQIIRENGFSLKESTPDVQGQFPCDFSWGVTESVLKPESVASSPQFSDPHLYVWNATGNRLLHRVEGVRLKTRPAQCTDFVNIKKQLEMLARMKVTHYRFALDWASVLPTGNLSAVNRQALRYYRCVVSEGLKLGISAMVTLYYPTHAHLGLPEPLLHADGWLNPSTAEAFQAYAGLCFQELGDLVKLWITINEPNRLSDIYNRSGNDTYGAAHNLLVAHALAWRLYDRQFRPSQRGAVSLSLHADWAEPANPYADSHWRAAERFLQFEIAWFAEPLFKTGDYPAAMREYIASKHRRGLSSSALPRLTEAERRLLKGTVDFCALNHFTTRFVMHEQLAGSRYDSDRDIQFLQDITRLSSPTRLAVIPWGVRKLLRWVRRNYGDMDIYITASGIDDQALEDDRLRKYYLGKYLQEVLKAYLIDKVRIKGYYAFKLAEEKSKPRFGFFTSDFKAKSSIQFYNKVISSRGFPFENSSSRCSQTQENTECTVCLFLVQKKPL

[3] = molecular target: T1, human beta klotho protein (soluble, …); assay: Biacore SPR (as in Example 2); remark: listed apart in the source

Chain of human beta klotho / human FGFR1c receptor complex on cells (P11362 22-822 limits assumed, one chain of several): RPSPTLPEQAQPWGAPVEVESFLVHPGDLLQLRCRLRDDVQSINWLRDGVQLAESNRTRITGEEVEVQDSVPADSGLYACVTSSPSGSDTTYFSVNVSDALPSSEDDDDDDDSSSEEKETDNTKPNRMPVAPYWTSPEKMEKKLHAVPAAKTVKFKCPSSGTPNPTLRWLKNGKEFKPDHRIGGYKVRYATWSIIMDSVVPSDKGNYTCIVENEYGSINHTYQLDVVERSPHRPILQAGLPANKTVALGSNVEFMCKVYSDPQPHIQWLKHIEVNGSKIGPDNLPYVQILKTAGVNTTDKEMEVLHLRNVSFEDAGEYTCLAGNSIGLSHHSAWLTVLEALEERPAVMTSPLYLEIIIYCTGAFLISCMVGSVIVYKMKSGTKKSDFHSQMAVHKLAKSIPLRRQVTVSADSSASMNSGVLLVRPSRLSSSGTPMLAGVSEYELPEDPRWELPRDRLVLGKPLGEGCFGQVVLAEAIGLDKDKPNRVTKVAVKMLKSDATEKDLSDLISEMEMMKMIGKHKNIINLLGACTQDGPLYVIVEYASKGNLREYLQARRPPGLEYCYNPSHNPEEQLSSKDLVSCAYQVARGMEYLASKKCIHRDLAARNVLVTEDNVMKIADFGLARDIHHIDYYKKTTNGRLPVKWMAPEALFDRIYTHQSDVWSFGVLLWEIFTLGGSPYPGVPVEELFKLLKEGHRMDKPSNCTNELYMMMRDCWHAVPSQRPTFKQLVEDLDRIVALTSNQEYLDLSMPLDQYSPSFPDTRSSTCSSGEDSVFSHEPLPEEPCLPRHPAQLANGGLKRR

- EC50-adipocyte [1]: 3400 pM
- EC50 reporter assay [1]: 270 pM and 510 pM
- Kd [2]: 50 pM
B1: antibody 5H23 (antibody, V domains shown)
VH: QVQLQQSGPELVKPGALVKISCKASGYTFTSYDINWVKQRPGQGLEWIGWIYPGDGSTKYNEKFKGKATLTADKSSRTAYMQLSSLTSENSAVYFCARSDYYGSRSFAYWGQGTLVTVSA
VL: DIVLTQSPASLAVSLGQRATISCRASKSVSTSGYVYMHWNQQKPGQPPKLLIYLASYLESGVPARFSGSGSGTDFTLNIHPVEEEDAAIYYCQHSRDLTFPFGGGTKLEIK
notes: Murine monoclonal antibody from hybridoma; also called 5H23-Alexa647 (labelled form)

- Kd [3]: 640 pM and 580 pM
B2: humanized 5H23 antibody (VH SEQ ID NO: 271 and VL SEQ ID NO: 276) (antibody, V domains shown)
VH: QVQLQQSGAEVKKPGASVKVSCKASGYTFTSYDINWVRQAPGQGLEWIGWIYPGDGSTKYNEKFKGKATITRDTSASTAYMELSSLRSEDTAVYFCARSDYYGSRSFAYWGQGTLVTVSS
VL: DIVMTQSPDSLAVSLGERATINCRASKSVSTSGYVYMHWYQQKPGQPPKLLIYLASYLESGVPDRFSGSGSGTDFTLTISSVQAEDVAVYYCQHSRDLTFPFGGGTKLEIK
notes: also called h5H23; h5H23 (Prep 1)
